± gives the half width of the 95% confidence interval.
Assay: folding stability dG unfold from chymotrypsin proteolysis; higher = more stable
Procedure, shortened: (§1)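 Designed mini-proteins (under 80 residues, no cysteine) in a PA-tagged cDNA display construct were digested with trypsin and chymotrypsin. Each protease was used at 11 concentrations (threefold dilutions) plus a no-protease condition, followed by sequencing. K50 was inferred by Bayesian fitting of sequencing counts, and unfolding free energy was derived against a sequence-predicted unfolded-state K50 and a shared folded-state K50, per protease or combined. Only designs with AlphaFold2 dimer inter-PAE above 15 were kept.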

Row | Sequence | folding stability dG unfold
1 | SMKLIGVEEFENAKAVLFEKEDKYIKLVFIPEDIPEGEEIYYIKVFEGDEIIEEKAVKPEEIEEAIKEAGSA [r9_57_TrMRF] | 0.643 ± 0.21 kcal/mol
2 | SAMSVTISFDPKGPGGTLTITADPNSPQIEKFINELKKKLNLDIKSYTKTILPNGTVKVTLTYSKINLPSAG [r14_655_JUSTAS] | 4.657 ± 0.028 kcal/mol
3 | VDPDDPEYQRFVYFVQELAKTIVEEHQEEGPTVDELYITVDPNNVKIEPVDMPPDEWEEHQKEGRPVIPIRS [r1_134_TrROS] | 0.187 ± 0.33 kcal/mol
4 | SAGGSAGGSAGSMAVDLKITISEDPSKPTYTGTVHLPDGTVVTVTSTGSPEELRARLEALLSAGGSAGGSAG [r3_143_JUSTAS] | 1.94 ± 0.044 kcal/mol
5 | SADLAAELEEGGFVVTITETVVSVTPQTLEKDSFVVEKDVVTTITVTPPPVAPPPPDPANLRDAAGAPVSAG [r14_569_JUSTAS] | 1.01 ± 0.023 kcal/mol
6 | SAGGSAGGMTLTVDLPLPDGGTVRLEVEPLPDGTVRVRLTYPDGRKAEFETSAPVEVLLERAAGSAGGSAGG [r6_808_TrMRF] | 3.05 ± 0.054 kcal/mol
7 | SAGGEEVTIKLSDELRDLVPDAEIRVERLEDGTLRIEIRVRLPAPEPPEPVERREERRVEVRVEVRLESAGG [r13_129_TrROS_Hall] | 2.22 ± 0.22 kcal/mol
8 | SAGGSLVYRLVLRRGDKVLVVTAPFDSPSDALAAASRLLPGGAELLLEFFDPRTGEPLGTVPFRSVSAGGSA [r2_390_TrMRF] | 2.06 ± 0.039 kcal/mol
9 | SAGGSAMTPVTLEITSEEELEAKIEELAPPGRTVTINVTSTTEKTRVEDDVTRDYTVVTANVTFPPSAGGSA [r15_95_JUSTAS] | 0.573 ± 0.04 kcal/mol
10 | SAGGGELYIMFKFDFTFWINNGTISFDMYIMIRIPIPPPPVPIELEDDPDGSYKYEYPNGKEHEVPNSAGGS [r16_136_TrROS] | 3.16 ± 0.079 kcal/mol
11 | SAGGSAGGSAGGMTIEINGKKYEIVEVKEEKGKLTLKIKVNGKLLEIEIDKDKNEIKIYPSAGGSAGGSAGG [r7_553_TrROS_Hall] | 4.05 ± 0.1 kcal/mol
12 | SAGGSAGGSAGGSVYIDPDKGYLVMWNEEDGYIVKYPIDPPNKIPSVDIEPIPPGDPLFSAGGSAGGSAGGS [r4_409_TrROS] | 1.13 ± 0.07 kcal/mol
13 | SAGGSAGGSAPDIKIEKIGENTYKITLNFEFTFEDGSKVKVKITFTFTVNFPEDDPLLKELFSAGGSAGGSA [r18_215_TrMRF] | 3.213 ± 0.028 kcal/mol
14 | SAGGSAGGSAGERLTADELRKLAEELGLPAEITVERKEDGTYTVTITVDGKTYKIEIKLDSAGGSAGGSAGG [r11_410_TrROS_Hall] | 3.44 ± 0.1 kcal/mol
15 | SAGMKPIVELLKKEPNPKVILVEVFPTGGEAKIVVKDKVYVFPVKPGPGRRVLVVDPDGKILEVKPFPVSAG [r5_329_TrMRF] | 0.709 ± 0.14 kcal/mol
16 | SMIIPPELGFEEAVELIKELLEPEKTYLVVTGDPETGTLSVARLDPETGEVEVEPLPTTEGESFVAVFEISA [r9_1059_TrMRF] | 1.3 ± 0.059 kcal/mol
17 | SANMDMPPGFKPIARDDDITIWQNPNPVYIMIRGPDGKHKMLPFNPGDPEKIKDLIREFADDGITDIMISAG [r14_12_TrROS] | 0.657 ± 0.12 kcal/mol
18 | SAGGPKKAIEILKKEGFTIKSVDPKKKKVIATPKETDIPIEIYVIGDDKVLIVEYLKGKPIIKEFKKSAGGS [r16_197_TrMRF] | 0.741 ± 0.12 kcal/mol
19 | SAGGSAGGSAGGGMSTAVLKIDDKWVPVRIYPDSVVIEYPDGSTKTISLSEIPENLIELPSAGGSAGGSAGG [r7_748_JUSTAS] | 0.547 ± 0.07 kcal/mol
20 | SAGGSAGGSAGLTKPVEVEVEEDGTVTIKTLSIVPVDDGYELHEETTEIPLSPEEIAALQSAGGSAGGSAGG [r17_415_JUSTAS] | -0.158 ± 0.33 kcal/mol
21 | SAGGKIPKNAKILEVEFDPETGYIRIKVEFYDKNGKLIKKAEITIPILPVPPLSPEDIEKLLKALASSAGGS [r16_697_TrMRF] | 3.85 ± 0.17 kcal/mol

Assay: folding stability dG unfold (combined trypsin and chymotrypsin); higher = more stable
Procedure, shortened: as §1

Row | Sequence | folding stability dG unfold
22 | SAGGSAGIAKKNNLTLKVTVEKKGDKLLVTVEITYPDGTKKTITIELNIKLVPEVPPVHPDEPGFGSAGGSA [r15_843_TrMRF] | 2.81 ± 0.095 kcal/mol
23 | TIVIENASVEQIKNAIKEAIKEGKEVKIIIKASPEEKEKIIEELKKLPEIKKVEKLPNGSIKITIKAKELKS [r1_324_TrROS_Hall] | 2.32 ± 0.66 kcal/mol
24 | SAGGSAGGSAGASLKEELGFAEVLSRSPTPDTEPLLLKHPEGGELVTVEVDAATAVEWLESAGGSAGGSAGG [r11_630_JUSTAS] | 0.354 ± 0.24 kcal/mol
25 | SGFTFSTLIAPDESLSITVKEPNSSTTTSFDFTVDPATGAVSATATTTPPDGKTQTFSVTIPVSPGAAALSA [r9_770_JUSTAS] | 0.973 ± 0.11 kcal/mol
26 | SAGGSAGGSAGWLMIMFPIPPNADNVRIKWPDGPTQEHEMEPGSPVMIMIPPGNIKIEVDSAGGSAGGSAGG [r11_52_TrROS] | 1.21 ± 0.1 kcal/mol
27 | SAGGSAGGKIIINGKEIEPGETITLPNGLKLEVVDGKIKLVVRDEETGEEKEITLSAEELKKLLSAGGSAGG [r6_940_TrROS_Hall] | 3.09 ± 0.061 kcal/mol
28 | SAGGSAGGSAPDNVEIEVYELPAGMYRVKIWPPGGNRHEFNFPPGEPKKIKIPPGVSIEIWPFSAGGSAGGS [r12_517_TrROS] | 0.743 ± 0.22 kcal/mol
29 | SDYMPVHKMESDGKRNPNGQHEYEPKMEPVWVPVPPPPPRIRIPPEWREKLKELAEKLGHPITDDDINKISA [r9_487_TrROS] | -0.13 ± 0.31 kcal/mol
30 | SAGGSAGGSAGMKTTTLEVSTDPSGYTTTKTKIEIINENTPSISTSTVVTAVTPPAPPIASAGGSAGGSAGG [r11_830_JUSTAS] | 0.195 ± 0.057 kcal/mol
31 | SAGGSAGGPKEYYRVTVYVRNKDGEWEKVAEIEVPGMTEEELKELLAKLGLPPGAEVEIKIEKVSAGGSAGG [r6_88_TrROS_Hall] | 5.01 ± 0.21 kcal/mol

Source: the supplement of paper PMC12764529
